One substance from patent US20190177423A1 can be followed below.

Test [1] deals with FcγRIIIa(V158) (Sino Biological Inc, 10389-H08C1) (UniProt P08637). Briefly: Binding ELISA on FcγRIIIa(V158); relative to MIL62 as 100%. (ELISA stands for enzyme-linked immunosorbent assay.)
Test [2] has the same target. Briefly: Binding ELISA: FcγRIIIa captured on anti-His coated plate; IgG pre-complexed with goat F(ab')2 anti-human-κ (1:2 w/w); HRP anti-human IgG F(ab')2 detection.

FcγRIIIa(V158) (Sino Biological Inc, 10389-H08C1), sequence (P08637 17-208 F176V): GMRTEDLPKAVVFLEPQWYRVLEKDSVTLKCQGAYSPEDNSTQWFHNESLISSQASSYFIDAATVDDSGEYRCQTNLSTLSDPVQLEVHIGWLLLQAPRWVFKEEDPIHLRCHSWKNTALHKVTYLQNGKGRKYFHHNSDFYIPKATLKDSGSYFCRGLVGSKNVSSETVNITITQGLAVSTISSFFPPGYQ

For the substance RITUXAN (rituximab) (antibody), the Relative Bioactivity (%) in test [1] stood at 26.8%. This substance also came in with an EC50 in test [2] of 0.194 µg/mL.

The term EC50 denotes the concentration that produces a half-maximal response. A lower EC50 goes with a more potent agent.
